Positions count from the first letter of the chain named. Where “and” joins values, the source holds several entries; their conditions need not be identical. Identical values can stand only once.

Sequences and labels used below:
B1: 36L, 72A wt (protein, listed as Rattus norvegicus)
chain: AFDGTWKVDRNENYEKFMEKMGINVVKRKLGAHDNLKLTITQEGNKFTVKESSNFRNIDVVFELGVDFAYSAADGTELTGTWTMEGNKLVGKFKRVDNGKELIAVREISGNELIQTYTYEGVEAKRIFKKE
modifications: PEPTIDE (1)...(131) wild-type rat intestinal fatty acid binding protein
B2: 38S1, 72A (protein, listed as Rattus norvegicus)
chain: B1 chain with L38S
modifications: PEPTIDE (1)...(131) wild-type rat intestinal fatty acid binding protein
B3: 38H1, 72A (protein, listed as Rattus norvegicus)
chain: B1 chain with L38H
modifications: PEPTIDE (1)...(131) wild-type rat intestinal fatty acid binding protein
B4: 38K1, 72A (protein, listed as Rattus norvegicus)
chain: B1 chain with L38K
modifications: PEPTIDE (1)...(131) wild-type rat intestinal fatty acid binding protein
B5: 38I3, 72A (protein, listed as Rattus norvegicus)
chain: B1 chain with L38I
modifications: PEPTIDE (1)...(131) wild-type rat intestinal fatty acid binding protein
B6: 38Q1, 72A (protein, listed as Rattus norvegicus)
chain: B1 chain with L38Q
modifications: PEPTIDE (1)...(131) wild-type rat intestinal fatty acid binding protein
B7: 38F1, 72A (protein, listed as Rattus norvegicus)
chain: B1 chain with L38F
modifications: PEPTIDE (1)...(131) wild-type rat intestinal fatty acid binding protein
B8: 102P, 72A (protein, listed as Rattus norvegicus)
chain: B1 chain with L102P
modifications: PEPTIDE (1)...(131) wild-type rat intestinal fatty acid binding protein
B9: 36Y, 72A (protein, listed as Rattus norvegicus)
chain: B1 chain with L36Y
modifications: PEPTIDE (1)...(131) wild-type rat intestinal fatty acid binding protein
B10: 36R, 72A (protein, listed as Rattus norvegicus)
chain: B1 chain with L36R
modifications: PEPTIDE (1)...(131) wild-type rat intestinal fatty acid binding protein
B11: 36M, 72A (protein, listed as Rattus norvegicus)
chain: B1 chain with L36M
modifications: PEPTIDE (1)...(131) wild-type rat intestinal fatty acid binding protein
B12: 36N, 72A (protein, listed as Rattus norvegicus)
chain: B1 chain with L36N
modifications: PEPTIDE (1)...(131) wild-type rat intestinal fatty acid binding protein
B13: 38G1, 72A (protein, listed as Rattus norvegicus)
chain: B1 chain with L38G
modifications: PEPTIDE (1)...(131) wild-type rat intestinal fatty acid binding protein
B14: 36S, 72A (protein, listed as Rattus norvegicus)
chain: B1 chain with L36S
modifications: PEPTIDE (1)...(131) wild-type rat intestinal fatty acid binding protein
B15: 36Q, 72A (protein, listed as Rattus norvegicus)
chain: B1 chain with L36Q
modifications: PEPTIDE (1)...(131) wild-type rat intestinal fatty acid binding protein
B16: 36P, 72A (protein, listed as Rattus norvegicus)
chain: B1 chain with L36P
modifications: PEPTIDE (1)...(131) wild-type rat intestinal fatty acid binding protein
B17: 38E1, 72A (protein, listed as Rattus norvegicus)
chain: B1 chain with L38E
modifications: PEPTIDE (1)...(131) wild-type rat intestinal fatty acid binding protein
B18: 38T3, 72A (protein, listed as Rattus norvegicus)
chain: B1 chain with L38T
modifications: PEPTIDE (1)...(131) wild-type rat intestinal fatty acid binding protein
B19: 38N1, 72A (protein, listed as Rattus norvegicus)
chain: B1 chain with L38N
modifications: PEPTIDE (1)...(131) wild-type rat intestinal fatty acid binding protein
B20: 38A2, 72A (protein, listed as Rattus norvegicus)
chain: B1 chain with L38A
modifications: PEPTIDE (1)...(131) wild-type rat intestinal fatty acid binding protein

The nature of one experiment: Probe fluorescence ratio response to linoleic acid relative to ADIFAB2. Type of experiment: binding. The settings on record: response relative to ADIFAB2. Summed up:
(§1)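 Each fatty acid's response was expressed relative to ADIFAB2, the rI-FABP-L72A probe, as ΔR/ΔRreference. ΔR is the change in the background-corrected two-wavelength intensity ratio R=Fλ1/Fλ2 from its analyte-free baseline R0. Emission was read near about 420-480 nm for unbound and about 495-580 nm for FFA-bound probe.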
For the molecule B1, the “DR/DR LA” value was 1.21.
B2: the “DR/DR LA” value is recorded as 1.37.
Same read-out and setting: to B3 belongs 1.25; to B4, 0.90; to B5, 1.22.
Still for that read-out and setting: the result for B6 reads 1.90; that for B7, 0.95.
On the same count and under the same terms, to B8 belongs 0.54; to B9, 0.75; to B10, 1.17.
On to B11, for which the “DR/DR LA” value was 1.10.
Take B12: the “DR/DR LA” value is recorded as 0.47.
On the same count and under the same terms, the result for B13 reads 1.10.
Same read-out and setting: the result for B14 reads 0.50.
On the same count and under the same terms, to B15 belongs 1.26 and 0.927; to B16, −7.45.
Consider B17, for which the “DR/DR LA” value worked out at 0.59.
The same measure, in the same setting: to B18 belongs 1.58; to B19, 1.12.
Same read-out and setting: to B20 belongs 1.31.

Another experiment is described as follows: Probe fluorescence ratio response to oleic acid relative to ADIFAB2. Format: binding. Particulars: response relative to ADIFAB2. Summed up: as §1
Regarding B1, the “DR/DR OA” value came to 1.25.
On the same count and under the same terms, the result for B2 reads 1.28; that for B3, 1.16; that for B4, 0.76.
On the same count and under the same terms, the result for B5 reads 1.21.
Still for that read-out and setting: the result for B6 reads 1.75; that for B7, 0.97.
B8: the “DR/DR OA” value was found to be 0.49.
Same read-out and setting: the result for B9 reads 0.66.
As to B10, the “DR/DR OA” value was determined as 1.14.
On the same count and under the same terms, the result for B11 reads 1.12; that for B12, 0.38; that for B13, 1.03.
The same measure, in the same setting: to B14 belongs 0.43.
For B15, the “DR/DR OA” value is 1.12 and 0.792.
Still for that read-out and setting: the result for B16 reads 0.14; that for B17, 0.54; that for B18, 1.55.
On the same count and under the same terms, the result for B19 reads 0.97; that for B20, 1.26.

A further experiment can be described thus: Probe fluorescence ratio response to palmitic acid relative to ADIFAB2. The settings on record: response relative to ADIFAB2. Type of experiment: binding. Put shortly: as §1
B1: the “DR/DR PA” value stood at 1.13.
Same read-out and setting: to B2 belongs 0.71.
The same measure, in the same setting: to B3 belongs 0.74; to B4, 0.48.
On the same count and under the same terms, the result for B5 reads 1.12.
For the molecule B6, the “DR/DR PA” value worked out at 1.30.
For the molecule B7, the “DR/DR PA” value is 0.85.
Still for that read-out and setting: the result for B8 reads 0.39; that for B9, 0.60; that for B10, 0.70.
The same measure, in the same setting: the result for B11 reads 0.97; that for B12, 0.39; that for B13, 0.56.
On the same count and under the same terms, to B14 belongs 0.42; to B15, 0.81 and 0.777.
For B16, the “DR/DR PA” value worked out at 0.31.
As to B17, the “DR/DR PA” value is given as 0.31.
The same measure, in the same setting: the result for B18 reads 1.02.
The same measure, in the same setting: the result for B19 reads 0.65.
On the same count and under the same terms, to B20 belongs 0.68.

A short description of a further experiment: Probe fluorescence ratio response to linolenic acid relative to ADIFAB2. Type of experiment: binding. The settings on record: response relative to ADIFAB2. Summed up:
as §1
Turning to B1, the “DR/DR LNA” value came to 1.00.
Still for that read-out and setting: to B2 belongs 1.37.
On the same count and under the same terms, to B3 belongs 1.19.
As to B4, the “DR/DR LNA” value stood at 0.86.
The same measure, in the same setting: the result for B5 reads 1.21; that for B6, 1.87.
The same measure, in the same setting: to B7 belongs 0.96.
The same measure, in the same setting: to B8 belongs 0.56; to B9, 0.68; to B10, 1.17.
As to B11, the “DR/DR LNA” value stood at 1.08.
For B12, the “DR/DR LNA” value amounted to 0.42.
Same read-out and setting: to B13 belongs 1.07; to B14, 0.50; to B15, 1.28 and 0.880.
The same measure, in the same setting: the result for B16 reads 0.36.
Regarding B17, the “DR/DR LNA” value was found to be 0.29.
The same measure, in the same setting: the result for B18 reads 1.64.
Same read-out and setting: the result for B19 reads 1.14; that for B20, 1.30.

The nature of another experiment: Probe fluorescence ratio response to arachidonic acid relative to ADIFAB2. Type of experiment: binding. The settings on record: Arachidonic acid; response relative to ADIFAB2. Summed up: as §1
Regarding B2, the “DR/DR AA” value is listed as 1.28.
On the same count and under the same terms, the result for B3 reads 1.24; that for B4, 0.83; that for B5, 1.18.
The same measure, in the same setting: to B6 belongs 1.87.
Take B13: the “DR/DR AA” value was 1.03.
For the molecule B18, the “DR/DR AA” value is recorded as 1.60.
The same measure, in the same setting: the result for B19 reads 1.08.

Still in this experiment, the particulars now being: arachidonic acid; response relative to ADIFAB2.
As to B1, the “DR/DR AA” value is listed as 1.25.
In the case of B7, the “DR/DR AA” value amounted to 0.91.
For the molecule B8, the “DR/DR AA” value turned out to be 0.50.
Take B9: the “DR/DR AA” value was 0.68.
On the same count and under the same terms, to B10 belongs 1.04; to B11, 1.23.
Still for that read-out and setting: the result for B12 reads 0.47; that for B14, 0.49; that for B15, 1.20 and 0.837.
The same measure, in the same setting: to B16 belongs 0.32; to B17, 0.57; to B20, 1.23.

Source of the values: patent publication US20060257938A1, “Method of screening for drugs that block ligand binding to a lipid binding protein” (priority 2005, published 2006).
